Literature values as cited in US7323168B2, “Immunotherapy for chronic myelocytic leukemia” (Immunomedics, Inc., priority 2000, dated 2008).

System: IFN-γ levels
Conditions: single intravenous dose 42.5 μg/kilogram, rhesus monkeys

B1: recombinant IL-12: recombinant interleukin-12 (protein, UniProt P29459 23-219; P29460 23-328, looked up)
Interleukin-12 subunit alpha: RNLPVATPDPGMFPCLHHSQNLLRAVSNMLQKARQTLEFYPCTSEEIDHEDITKDKTSTVEACLPLELTKNESCLNSRETSFITNGSCLASRKTSFMMALCLSSIYEDLKMYQVEFKTMNAKLLMDPKRQIFLDQNMLAVIDELMQALNFNSETVPQKSSLEEPDFYKTKIKLCILLHAFRIRAVTIDRVMSYLNAS
Interleukin-12 subunit beta: IWELKKDVYVVELDWYPDAPGEMVVLTCDTPEEDGITWTLDQSSEVLGSGKTLTIQVKEFGDAGQYTCHKGGEVLSHSLLLLHKKEDGIWSTDILKDQKEPKNKTFLRCEAKNYSGRFTCWWLTTISTDLTFSVKSSRGSSDPQGVTCGAATLSAERVRGDNKEYEYSVECQEDSACPAAEESLPIEVMVDAVHKLKYENYTSSFFIRDIIKPDPPKNLQLKPLKNSRQVEVSWEYPDTWSTPHSYFSLTFCVQVQGKSKREKKDRVFTDKTSATVICRKNASISVRAQDRYYSSSWSEWASVPCS
- IFN-γ levels: elevated
